According to patent US20240327535A1 (EISAI R AND D MANAGEMENT, published 2024):
Where two headings read alike, the source gives them in different places.

T1: extracellular domain of human BCMA (human, UniProt Q02223 1-54)
T1 construct: amine-linked to Octet AR2G tips; also called hsBCMA; BCMA (human)
T1 sequence: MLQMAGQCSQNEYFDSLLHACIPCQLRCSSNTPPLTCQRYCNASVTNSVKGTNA


How the values were obtained:
Assay in all cases: Octet BLI; Fab 200 nM
[1] = biological target: T1, extracellular domain of human BCMA
[2] = biological target: T2, extracellular domain of rhesus monkey BCMA (rhesus monkey, UniProt F7FFA0 1-53)
T2 construct: extracellular domain; also called RhBCMA
T2 sequence (F7FFA0 entry or part of it): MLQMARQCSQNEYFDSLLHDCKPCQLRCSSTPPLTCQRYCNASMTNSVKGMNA

[3] = biological target: T1, extracellular domain of human BCMA; remark: listed apart in the source
[4] = biological target: T2, extracellular domain of rhesus monkey …; remark: listed apart in the source

Row | Binder | Kd [1] [nM] | koff [1] [s⁻¹] | kon [1] [M⁻¹ s⁻¹] | Kd [2] [nM] | koff [2] [s⁻¹] | kon [2] [M⁻¹ s⁻¹] | Kd [3] [nM] | Kd [4] [nM]
1 | AB200_Fab (D99D) (Fab, V domains shown) VH: QVQLVQSGAEVKKPGSSVKVSCKASGGTFSNYWMHWVRQAPGQGLEWMGATYRGHSDTYYNQKFKGRVTITADKSTSTAYMELSSLRSEDTAVYYCARGAIYDGYDVLDNWGQGTLVTVSS VL: DIQMTQSPSSLSASVGDRVTITCSASQDISNYLNWYQQKPGKAPKLLIYYTSNLHSGVPSRFSGSGSGTDFTLTISSLQPEDFATYYCQQYRKLPWTFGQGTKLEIKR | 3.45 | 0.00058 | 170000 | 5.89 | 0.00118 | 200000 | – | –
2 | AB200-(2Vk31)_R2-CDR2-hs-v1 (Fab, V domains shown) VH: QVQLVQSGAEVKKPGSSVKVSCKASGGTFTNYWIHWVRQAPGQGLEWMGGIIPIFGTANYAQKFQGRVTITADKSTSTAYMELSSLRSEDTAVYYCARGAIFHGYDVIDNWGQGTLVTVSS VL: DIQMTQSPSSLSASVGDRVTITCRASQSISSYLNWYQQKPGKAPKLLIYATSNLQIGVPSRFSGSGSGTDFTLTISSLQPEDFATYYCQQFRRLPWTFGQGTKLEIKR | – | – | – | – | – | – | 241 | 448
3 | AB200-(2Vk31)_R2-CDR2-hs-v3 (Fab, V domains shown) VH: QVQLVQSGAEVKKPGSSVKVSCKASGGTFTNYWIHWVRQAPGQGLEWMGGIIPIFGTANYAQKFQGRVTITADKSTSTAYMELSSLRSEDTAVYYCARGAVYHGYDVIDNWGQGTLVTVSS VL: DIQMTQSPSSLSASVGDRVTITCRASQSISSYLNWYQQKPGKAPKLLIYATSNLQIGVPSRFSGSGSGTDFTLTISSLQPEDFATYYCQQFRRLPWTFGQGTKLEIKR | – | – | – | – | – | – | 126 | 216
4 | AB200-(2Vk31)_R2-VH-v50 (Fab, V domains shown) VH: QVQLVQSGAEVKKPGSSVKVSCKASGGTYSNYWIHWVRQAPGQGLEWMGGTYRIHSDTNYNQKFKSRVTITADKSTSTAYMELSSLRSEDTAVYYCARGAIYHGYDVIENWGQGTLVTVSS VL: DIQMTQSPSSLSASVGDRVTITCRASQSISSYLNWYQQKPGKAPKLLIYATSNLQIGVPSRFSGSGSGTDFTLTISSLQPEDFATYYCQQFRRLPWTFGQGTKLEIKR | – | – | – | – | – | – | 90 | 196
5 | AB200_Fab + D99E (Fab, name in Kabat numbering, V domains shown) VH: QVQLVQSGAEVKKPGSSVKVSCKASGGTFSNYWMHWVRQAPGQGLEWMGATYRGHSDTYYNQKFKGRVTITADKSTSTAYMELSSLRSEDTAVYYCARGAIYEGYDVLDNWGQGTLVTVSS VL: DIQMTQSPSSLSASVGDRVTITCSASQDISNYLNWYQQKPGKAPKLLIYYTSNLHSGVPSRFSGSGSGTDFTLTISSLQPEDFATYYCQQYRKLPWTFGQGTKLEIKR | 5.92 | 0.00091 | 150000 | 13.6 | 0.00219 | 160000 | – | –
6 | AB200-(2Vk31)_R2-VH-v29 (Fab, V domains shown) VH: QVQLVQSGAEVKKPGSSVKVSCKASGGTFSNYWIHWVRQAPGQGLEWMGATYRSHSTTYYNEKFKSRVTITADKSTSTAYMELSSLRSEDTAVYYCARGAIYHGFDVIDNWGQGTLVTVSS VL: DIQMTQSPSSLSASVGDRVTITCRASQSISSYLNWYQQKPGKAPKLLIYATSNLQIGVPSRFSGSGSGTDFTLTISSLQPEDFATYYCQQFRRLPWTFGQGTKLEIKR | – | – | – | – | – | – | 6.02 | 9.34
7 | AB200-(2Vk31)_R2-VH-v73 (Fab, V domains shown) VH: QVQLVQSGAEVKKPGSSVKVSCKASGGTFSNYWIHWVRQAPGQGLEWMGATYRIHSDTYYAQKYKSRVTITADKSTSTAYMELSSLRSEDTAVYYCARGAVYHGYDVIDNWGQGTLVTVSS VL: DIQMTQSPSSLSASVGDRVTITCRASQSISSYLNWYQQKPGKAPKLLIYATSNLQIGVPSRFSGSGSGTDFTLTISSLQPEDFATYYCQQFRRLPWTFGQGTKLEIKR | – | – | – | – | – | – | 1.32 | 7.72
8 | AB200-(2Vk31)_R2-VH-v42 (Fab, V domains shown) VH: QVQLVQSGAEVKKPGSSVKVSCKASGGTFTNYWIHWVRQAPGQGLEWMGGTYRIHSDTYYNQKYKSRVTITADKSTSTAYMELSSLRSEDTAVYYCARGAIFHGYDVIDNWGQGTLVTVSS VL: DIQMTQSPSSLSASVGDRVTITCRASQSISSYLNWYQQKPGKAPKLLIYATSNLQIGVPSRFSGSGSGTDFTLTISSLQPEDFATYYCQQFRRLPWTFGQGTKLEIKR | – | – | – | – | – | – | 4.33 | 23.5
9 | AB200-(2Vk31)_R2-VH-v21 (Fab, V domains shown) VH: QVQLVQSGAEVKKPGSSVKVSCKASGGTFSNYWIHWVRQAPGQGLEWMGGTYRSHSDTYYAQKFKSRVTITADKSTSTAYMELSSLRSEDTAVYYCARGAIFHGYDVIDNWGQGTLVTVSS VL: DIQMTQSPSSLSASVGDRVTITCRASQSISSYLNWYQQKPGKAPKLLIYATSNLQIGVPSRFSGSGSGTDFTLTISSLQPEDFATYYCQQFRRLPWTFGQGTKLEIKR | – | – | – | – | – | – | 10.7 | 29.7
10 | AB200_Fab + D99Q (Fab, name in Kabat numbering, V domains shown) VH: QVQLVQSGAEVKKPGSSVKVSCKASGGTFSNYWMHWVRQAPGQGLEWMGATYRGHSDTYYNQKFKGRVTITADKSTSTAYMELSSLRSEDTAVYYCARGAIYQGYDVLDNWGQGTLVTVSS VL: DIQMTQSPSSLSASVGDRVTITCSASQDISNYLNWYQQKPGKAPKLLIYYTSNLHSGVPSRFSGSGSGTDFTLTISSLQPEDFATYYCQQYRKLPWTFGQGTKLEIKR | 3.06 | 0.00053 | 170000 | 7.63 | 0.0014 | 180000 | – | –
11 | AB200-(2Vk31)_R2-VH-v18 (Fab, V domains shown) VH: QVQLVQSGAEVKKPGSSVKVSCKASGGSFSNYWIHWVRQAPGQGLEWMGATYRSHSDTYYAEKFKSRVTITADKSTSTAYMELSSLRSEDTAVYYCARGAVYHGYDVIDNWGQGTLVTVSS VL: DIQMTQSPSSLSASVGDRVTITCRASQSISSYLNWYQQKPGKAPKLLIYATSNLQIGVPSRFSGSGSGTDFTLTISSLQPEDFATYYCQQFRRLPWTFGQGTKLEIKR | – | – | – | – | – | – | 3.55 | 14.9
12 | AB200-(2Vk31)_R2-VH-v33 (Fab, V domains shown) VH: QVQLVQSGAEVKKPGSSVKVSCKASGGTFSNYWIHWVRQAPGQGLEWMGATYRSHSDTNYNEKFKSRVTITADKSTSTAYMELSSLRSEDTAVYYCARGAIYHGYDVIENWGQGTLVTVSS VL: DIQMTQSPSSLSASVGDRVTITCRASQSISSYLNWYQQKPGKAPKLLIYATSNLQIGVPSRFSGSGSGTDFTLTISSLQPEDFATYYCQQFRRLPWTFGQGTKLEIKR | – | – | – | – | – | – | 46 | 50.4
13 | AB200-(2Vk31)_R2-VH-v57 (Fab, V domains shown) VH: QVQLVQSGAEVKKPGSSVKVSCKASGGTFSNYWIHWVRQAPGQGLEWMGGTYRIHSTTYYNQKFKSRVTITADESTSTAYMELSSLRSEDTAVYYCARGAVYHGYDVIDNWGQGTLVTVSS VL: DIQMTQSPSSLSASVGDRVTITCRASQSISSYLNWYQQKPGKAPKLLIYATSNLQIGVPSRFSGSGSGTDFTLTISSLQPEDFATYYCQQFRRLPWTFGQGTKLEIKR | – | – | – | – | – | – | 11.9 | 20.8
14 | AB200_Fab + D99N (Fab, name in Kabat numbering, V domains shown, also called D99N variant) VH: QVQLVQSGAEVKKPGSSVKVSCKASGGTFSNYWMHWVRQAPGQGLEWMGATYRGHSDTYYNQKFKGRVTITADKSTSTAYMELSSLRSEDTAVYYCARGAIYNGYDVLDNWGQGTLVTVSS VL: DIQMTQSPSSLSASVGDRVTITCSASQDISNYLNWYQQKPGKAPKLLIYYTSNLHSGVPSRFSGSGSGTDFTLTISSLQPEDFATYYCQQYRKLPWTFGQGTKLEIKR | 1.23 | 0.00023 | 190000 | 3.32 | 0.00066 | 200000 | – | –
15 | AB200-(2Vk31)_R2-VH-v25 (Fab, V domains shown) VH: QVQLVQSGAEVKKPGSSVKVSCKASGGTFSNYWIHWVRQAPGQGLEWMGATYRSHSTTNYNQKFKSRVTITADKSTSTAYMELSSLRSEDTAVYYCARGAIYHGFDVIDNWGQGTLVTVSS VL: DIQMTQSPSSLSASVGDRVTITCRASQSISSYLNWYQQKPGKAPKLLIYATSNLQIGVPSRFSGSGSGTDFTLTISSLQPEDFATYYCQQFRRLPWTFGQGTKLEIKR | – | – | – | – | – | – | 32.8 | 57.3
16 | AB200-(2Vk31)_R2-VH-v47 (Fab, V domains shown) VH: QVQLVQSGAEVKKPGSSVKVSCKASGGTYSNYWIHWVRQAPGQGLEWMGATYRIHSTTYYNEKFKSRVTITADKSTSTAYMELSSLRSEDTAVYYCARGAIFHGYDVIDNWGQGTLVTVSS VL: DIQMTQSPSSLSASVGDRVTITCRASQSISSYLNWYQQKPGKAPKLLIYATSNLQIGVPSRFSGSGSGTDFTLTISSLQPEDFATYYCQQFRRLPWTFGQGTKLEIKR | – | – | – | – | – | – | 17.7 | 15.9
17 | AB200-(2Vk31)_R2-VH-v34 (Fab, V domains shown) VH: QVQLVQSGAEVKKPGSSVKVSCKASGGTFSNYWIHWVRQAPGQGLEWMGATYRSQSDTYYAQKFKSRVTITADKSTSTAYMELSSLRSEDTAVYYCARGAIYHGYDVIENWGQGTLVTVSS VL: DIQMTQSPSSLSASVGDRVTITCRASQSISSYLNWYQQKPGKAPKLLIYATSNLQIGVPSRFSGSGSGTDFTLTISSLQPEDFATYYCQQFRRLPWTFGQGTKLEIKR | – | – | – | – | – | – | 5.13 | 18
18 | AB200-(2Vk31)_R2-VH-v17 (Fab, V domains shown) VH: QVQLVQSGAEVKKPGSSVKVSCKASGGSFSNYWIHWVRQAPGQGLEWMGATYRSQSDTYYAQKFKSRVTITADKSTSTAYMELSSLRSEDTAVYYCARGAIFHGYDVIDNWGQGTLVTVSS VL: DIQMTQSPSSLSASVGDRVTITCRASQSISSYLNWYQQKPGKAPKLLIYATSNLQIGVPSRFSGSGSGTDFTLTISSLQPEDFATYYCQQFRRLPWTFGQGTKLEIKR | – | – | – | – | – | – | 5.77 | 16.9
19 | AB200-(2Vk31)_R2-VH-v66 (Fab, V domains shown) VH: QVQLVQSGAEVKKPGSSVKVSCKASGGTFSNYWIHWVRQAPGQGLEWMGATYRIHSTTYYNQKYKSRVTITADKSTSTAYMELSSLRSEDTAVYYCARGAIFHGYDVIDNWGQGTLVTVSS VL: DIQMTQSPSSLSASVGDRVTITCRASQSISSYLNWYQQKPGKAPKLLIYATSNLQIGVPSRFSGSGSGTDFTLTISSLQPEDFATYYCQQFRRLPWTFGQGTKLEIKR | – | – | – | – | – | – | 13.7 | 20.8
